Measurements from patent US20180030151A1.
Like-named read-outs stand apart in the source and are kept apart here.

Tests used:
[1] = target: recombinant human TFPI (tissue factor pathway inhibitor) (human) (UniProt P10646); assay: cell-based or functional assay
[2] = target: recombinant human TFPI (tissue factor pathway inhibitor) (human) (UniProt P10646)
[3] = target: recombinant human TFPI (tissue factor pathway inhibitor) (human) (UniProt P10646); assay: cell-based or functional assay; remark: listed apart in the source
[4] = target: recombinant human TFPI (tissue factor pathway inhibitor) (human) (UniProt P10646); remark: listed apart in the source
[5] = target: recombinant human TFPI (tissue factor pathway inhibitor) (human) (UniProt P10646); remark: listed apart in the source
[6] = target: recombinant human TFPI (tissue factor pathway inhibitor) (human) (UniProt P10646); assay: cell-based or functional assay; remark: listed apart in the source
[7] = target: recombinant human TFPI (tissue factor pathway inhibitor) (human) (UniProt P10646); assay: cell-based or functional assay; remark: listed apart in the source

% of Normalized, TF/FVIIa/FX complex assay, Ab 6.25 nM [1]: 18.8%
% of Normalized, TF/FVIIa/FX complex assay, Ab 12.5 nM [1]: 24.4%
% of Normalized, TF/FVIIa/FX complex assay, Ab 25 nM [1]: 100%
% of Normalized, TF/FVIIa/FX complex assay, Ab 50 nM [1]: 99.6%
% of Normalized, TF/FVIIa/FX complex assay, Ab 100 nM [1]: 101%
FXa assay % of FXa alone, 2.5 nM Ab, 10 nM TFPI [2]: 5.6%
FXa assay % of FXa alone, 5 nM Ab, 10 nM TFPI [2]: 10.7%
FXa assay % of FXa alone, 10 nM Ab, 10 nM TFPI [2]: 77.7%
FXa assay % of FXa alone, 20 nM Ab, 10 nM TFPI [2]: 84.5%
FXa assay OD, 2.5 nM Ab, 10 nM TFPI [2]: 0.0485
FXa assay OD, 5 nM Ab, 10 nM TFPI [2]: 0.0935
FXa assay OD, 10 nM Ab, 10 nM TFPI [2]: 0.676
FXa assay OD, 20 nM Ab, 10 nM TFPI [2]: 0.735
% of Normalized, TF/FVIIa/FX complex assay (FX 5 nM), Ab 1.56 nM [3]: 5.3%
% of Normalized, TF/FVIIa/FX complex assay (FX 5 nM), Ab 3.13 nM [3]: 5.7%
% of Normalized, TF/FVIIa/FX complex assay (FX 5 nM), Ab 6.25 nM [3]: 6.1%
% of Normalized, TF/FVIIa/FX complex assay (FX 5 nM), Ab 12.5 nM [3]: 10.1%
% of Normalized, TF/FVIIa/FX complex assay (FX 5 nM), Ab 25 nM [3]: 42.5%
% of Normalized, TF/FVIIa/FX complex assay (FX 5 nM), Ab 50 nM [3]: 90.6%
% of Normalized, TF/FVIIa/FX complex assay (FX 5 nM), Ab 100 nM [3]: 99.4%
% of Normalized, TF/FVIIa/FX complex assay, Ab 1.56 nM [3]: 13.6%
% of Normalized, TF/FVIIa/FX complex assay, Ab 3.13 nM [3]: 15.7%
% of Normalized, TF/FVIIa/FX complex assay, Ab 6.25 nM [3]: 18.2%
% of Normalized, TF/FVIIa/FX complex assay, Ab 12.5 nM [3]: 23.7%
% of Normalized, TF/FVIIa/FX complex assay, Ab 25 nM [3]: 100%
% of Normalized, TF/FVIIa/FX complex assay, Ab 50 nM [3]: 101%
% of Normalized, TF/FVIIa/FX complex assay, Ab 100 nM [3]: 102%
A405, TF/FVIIa/FX complex assay (FX 5 nM), Ab 1.56 nM [3]: 0.043
A405, TF/FVIIa/FX complex assay (FX 5 nM), Ab 3.13 nM [3]: 0.047
A405, TF/FVIIa/FX complex assay (FX 5 nM), Ab 6.25 nM [3]: 0.05
A405, TF/FVIIa/FX complex assay (FX 5 nM), Ab 12.5 nM [3]: 0.082
A405, TF/FVIIa/FX complex assay (FX 5 nM), Ab 25 nM [3]: 0.344
A405, TF/FVIIa/FX complex assay (FX 5 nM), Ab 50 nM [3]: 0.733
A405, TF/FVIIa/FX complex assay (FX 5 nM), Ab 100 nM [3]: 0.805
A405, TF/FVIIa/FX complex assay, Ab 1.56 nM [3]: 0.125
A405, TF/FVIIa/FX complex assay, Ab 3.13 nM [3]: 0.145
A405, TF/FVIIa/FX complex assay, Ab 6.25 nM [3]: 0.168
A405, TF/FVIIa/FX complex assay, Ab 12.5 nM [3]: 0.218
A405, TF/FVIIa/FX complex assay, Ab 25 nM [3]: 0.918
A405, TF/FVIIa/FX complex assay, Ab 50 nM [3]: 0.929
A405, TF/FVIIa/FX complex assay, Ab 100 nM [3]: 0.937
FXa assay % of FXa alone, 2.5 nM Ab, 10 nM TFPI [4]: 6.6%
FXa assay % of FXa alone, 5 nM Ab, 10 nM TFPI [4]: 35%
FXa assay % of FXa alone, 10 nM Ab, 10 nM TFPI [4]: 98.5%
FXa assay % of FXa alone, 20 nM Ab, 10 nM TFPI [4]: 85.8%
FXa assay OD, 2.5 nM Ab, 10 nM TFPI [4]: 0.032
FXa assay OD, 5 nM Ab, 10 nM TFPI [4]: 0.17
FXa assay OD, 10 nM Ab, 10 nM TFPI [4]: 0.476
FXa assay OD, 20 nM Ab, 10 nM TFPI [4]: 0.415
FXa assay % of FXa alone, 2.5 nM Ab, 10 nM TFPI [5]: 9%
FXa assay % of FXa alone, 5 nM Ab, 10 nM TFPI [5]: 61.3%
FXa assay % of FXa alone, 10 nM Ab, 10 nM TFPI [5]: 97.4%
FXa assay % of FXa alone, 20 nM Ab, 10 nM TFPI [5]: 93.6%
FXa assay OD, 2.5 nM Ab, 10 nM TFPI [5]: 0.065
FXa assay OD, 5 nM Ab, 10 nM TFPI [5]: 0.441
FXa assay OD, 10 nM Ab, 10 nM TFPI [5]: 0.701
FXa assay OD, 20 nM Ab, 10 nM TFPI [5]: 0.673
A405, TF/FVIIa/FX complex assay, Ab 1.56 nM [6]: 0.044
A405, TF/FVIIa/FX complex assay, Ab 3.13 nM [6]: 0.046
A405, TF/FVIIa/FX complex assay, Ab 6.25 nM [6]: 0.062
A405, TF/FVIIa/FX complex assay, Ab 12.5 nM [6]: 0.105
A405, TF/FVIIa/FX complex assay, Ab 25 nM [6]: 0.462
A405, TF/FVIIa/FX complex assay, Ab 50 nM [6]: 0.73
A405, TF/FVIIa/FX complex assay, Ab 100 nM [6]: 0.852
% of Normalized, TF/FVIIa/FX complex assay, Ab 1.56 nM [7]: 15%
% of Normalized, TF/FVIIa/FX complex assay, Ab 3.13 nM [7]: 15.6%
% of Normalized, TF/FVIIa/FX complex assay, Ab 6.25 nM [7]: 17%
% of Normalized, TF/FVIIa/FX complex assay, Ab 12.5 nM [7]: 26.3%
% of Normalized, TF/FVIIa/FX complex assay, Ab 25 nM [7]: 102%
% of Normalized, TF/FVIIa/FX complex assay, Ab 50 nM [7]: 104%
% of Normalized, TF/FVIIa/FX complex assay, Ab 100 nM [7]: 104%
B1: mAb2021 (anti-TFPI Ab, Novo Nordisk) (antibody, from another filing, V domains shown)
VH: EVQLVESGGGLVKPGGSLRLSCAASGFTFSNYAMSWVRQTPEKRLEWVATISRSGSYSYFPDSVQGRFTISRDNAKNSLYLQMNSLRAEDTAVYYCARLGGYDEGDAMDSWGQGTTVTVSS
VL: DIVMTQTPLSLSVTPGQPASISCKSSQSLLESDGKTYLNWYLQKPGQSPQLLIYLVSILDSGVPDRFSGSGSGTDFTLKISRVEAEDVGVYYCLQATHFPQTFGGGTKVEIKR
